From EP4667491A1 (Genome and Company, dated 2025)
Where two headings read alike, the source gives them in different places.

T1: human CNTN4 expressed on the cell surface (human, UniProt Q8IWV2 19-1000)
T1 construct: whole, on cells; also called human CNTN4 cell
T1 sequence (looked up): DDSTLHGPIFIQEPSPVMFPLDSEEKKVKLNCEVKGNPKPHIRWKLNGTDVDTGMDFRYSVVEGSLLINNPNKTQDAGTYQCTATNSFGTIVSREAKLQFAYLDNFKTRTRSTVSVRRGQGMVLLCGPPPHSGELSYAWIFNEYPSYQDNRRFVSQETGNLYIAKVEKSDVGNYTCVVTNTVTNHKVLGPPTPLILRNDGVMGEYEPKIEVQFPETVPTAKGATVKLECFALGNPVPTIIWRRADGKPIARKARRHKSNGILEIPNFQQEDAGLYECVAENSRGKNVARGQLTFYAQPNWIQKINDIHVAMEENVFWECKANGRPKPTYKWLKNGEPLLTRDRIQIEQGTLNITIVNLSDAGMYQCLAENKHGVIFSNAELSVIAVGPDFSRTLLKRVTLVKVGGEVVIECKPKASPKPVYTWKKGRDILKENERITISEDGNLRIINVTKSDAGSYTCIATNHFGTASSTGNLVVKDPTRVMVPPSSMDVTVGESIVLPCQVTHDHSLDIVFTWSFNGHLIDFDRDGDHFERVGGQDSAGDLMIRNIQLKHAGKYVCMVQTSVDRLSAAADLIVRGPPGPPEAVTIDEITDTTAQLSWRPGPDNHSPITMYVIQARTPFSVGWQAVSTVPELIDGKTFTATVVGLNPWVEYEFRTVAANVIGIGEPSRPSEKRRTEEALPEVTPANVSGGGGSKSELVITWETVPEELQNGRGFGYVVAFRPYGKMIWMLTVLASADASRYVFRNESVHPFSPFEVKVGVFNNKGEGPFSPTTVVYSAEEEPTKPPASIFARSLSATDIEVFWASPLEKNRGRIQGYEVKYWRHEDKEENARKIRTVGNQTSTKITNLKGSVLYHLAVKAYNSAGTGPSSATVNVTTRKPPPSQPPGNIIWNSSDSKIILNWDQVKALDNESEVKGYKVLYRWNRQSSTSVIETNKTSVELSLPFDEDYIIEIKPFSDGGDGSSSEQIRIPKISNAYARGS

T2: Human CNTN4 (His-tagged) (human, UniProt Q8IWV2 19-1000, limits assumed)
T2 construct: also called human CNTN4 protein; not shown: His tag
T2 sequence (looked up): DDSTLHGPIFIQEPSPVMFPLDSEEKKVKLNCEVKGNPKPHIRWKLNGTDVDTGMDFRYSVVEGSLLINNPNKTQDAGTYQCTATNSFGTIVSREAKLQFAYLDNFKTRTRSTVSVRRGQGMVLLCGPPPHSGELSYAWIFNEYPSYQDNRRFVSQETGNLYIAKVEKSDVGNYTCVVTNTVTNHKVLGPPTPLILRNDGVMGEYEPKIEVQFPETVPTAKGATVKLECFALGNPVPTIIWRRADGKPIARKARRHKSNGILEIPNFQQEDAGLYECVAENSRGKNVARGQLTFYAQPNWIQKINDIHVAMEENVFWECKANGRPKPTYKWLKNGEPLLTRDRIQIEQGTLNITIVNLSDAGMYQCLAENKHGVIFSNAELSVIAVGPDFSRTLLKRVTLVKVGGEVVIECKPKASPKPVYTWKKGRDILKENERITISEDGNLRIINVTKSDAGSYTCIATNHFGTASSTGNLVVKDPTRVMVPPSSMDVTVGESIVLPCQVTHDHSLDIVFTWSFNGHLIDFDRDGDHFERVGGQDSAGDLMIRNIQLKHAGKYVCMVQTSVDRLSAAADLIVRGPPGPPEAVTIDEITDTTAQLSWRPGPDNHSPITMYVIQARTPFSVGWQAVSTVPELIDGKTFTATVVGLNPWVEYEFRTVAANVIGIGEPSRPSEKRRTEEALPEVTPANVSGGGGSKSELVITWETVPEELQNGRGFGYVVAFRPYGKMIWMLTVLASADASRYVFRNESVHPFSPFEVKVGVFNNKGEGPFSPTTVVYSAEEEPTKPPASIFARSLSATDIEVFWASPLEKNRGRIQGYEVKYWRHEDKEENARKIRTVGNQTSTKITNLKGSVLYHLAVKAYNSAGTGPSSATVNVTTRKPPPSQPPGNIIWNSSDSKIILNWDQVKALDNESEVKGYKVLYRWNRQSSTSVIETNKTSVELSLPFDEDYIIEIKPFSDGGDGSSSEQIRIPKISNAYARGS


Columns and labels:
[1] = target: T1, human CNTN4 expressed on the cell …; assay: flow cytometry; IgG on human CNTN4-overexpressing HEK293 cells
[2] = target: T1, human CNTN4 expressed on the cell …; assay: as above; remark: listed apart in the source
Human CNTN4 (His-tagged) [3] = target: T2, Human CNTN4 (His-tagged); assay: ELISA; His-tagged human CNTN4 captured by anti-His antibody, anti-human IgG-HRP
Human CNTN4 (His-tagged) [4] = target: T2, Human CNTN4 (His-tagged); assay: SPR; IgG captured on CM5 chip, His-tagged human CNTN4 as analyte, 1:1 fit
Human CNTN4 (His-tagged) [5] = target: T2, Human CNTN4 (His-tagged); assay: ELISA; His-tagged human CNTN4 captured by anti-His antibody, anti-human IgG-HRP; remark: listed apart in the source

Binder	EC50 [1]	TOP MFI [1]	EC50 [2]	EC50 (Human CNTN4 (His-tagged) [3])	Kd (Human CNTN4 (His-tagged) [4])	EC50 (Human CNTN4 (His-tagged) [5])
A114-IgG antibody (antibody, V domains shown, VH fused to CH1, hinge, CH2 and CH3 of human IgG4 (S228P); also called A114-IgG Ab; Al14-IgG Ab) VH: not shown VL: ELTQDPAVSVALGQTVRITCSGSSGSYGWYQQKPGQAPVLVIYDNTNRPSGIPDRFSGSSSGNTASLTITGAQAEDEADYYCGGYWGSTDVFGGGTKLTVL	0.262 nM	470 MFI	0.539 nM	0.129 nM	–	–
A108-IgG antibody (antibody, V domains shown, VH fused to CH1, hinge, CH2 and CH3 of human IgG4 (S228P); also called A108-IgG Ab) VH: not shown VL: ELTQDPAVSVALGQTVRITCSGSSGSYGWYQQKPGQAPVLVIYDNTNRPSGIPDRFSGSSSGNTASLTITGAQAEDEADYYCGGYDGSTDVFGGGTKLTVL	0.074 nM	356 MFI	–	0.034 nM	–	–
A211-IgG antibody (antibody, V domains shown, VH fused to CH1, hinge, CH2 and CH3 of human IgG4 (S228P); also called A211-IgG Ab) VH: not shown VL: ELTQDPAVSVALGQTVRITCSGRSGSYGWYQQKPGQAPVLVIYDNTNRPSGIPDRFSGSSSGNTASLTITGAQAEDEADYYCGGYWGSTDVFGGGTKLTVL	–	–	0.316 nM	–	0.709 nM	0.033 nM
A206-IgG antibody (antibody, V domains shown, VH fused to CH1, hinge, CH2 and CH3 of human IgG4 (S228P); also called A206-IgG Ab) VH: not shown VL: ELTQDPAVSVALGQTVRITCSGRSGSYGWYQQKPGQAPVLVIYDNTNRPSGIPDRFSGSSSGNTASLTITGAQAEDEADYYCGGYWGSTDVFGGGTKLTVL	–	–	–	–	0.702 nM	0.027 nM
A106-IgG antibody (antibody, V domains shown, VH fused to CH1, hinge, CH2 and CH3 of human IgG4 (S228P); also called A106-IgG Ab) VH: not shown VL: ELTQDPAVSVALGQTVRITCSGSSGSYGWYQQKPGQAPVLVIYDNTNRPSGIPDRFSGSSSGNTASLTITGAQAEDEADYYCGGYDGSTDVFGGGTKLTVL	0.086 nM	336 MFI	–	0.042 nM	–	–
A204-IgG antibody (antibody, V domains shown, VH fused to CH1, hinge, CH2 and CH3 of human IgG4 (S228P); also called A204-IgG Ab) VH: not shown VL: ELTQDPAVSVALGQTVRITCSGRSGSYGWYQQKPGQAPVLVIYDNTNRPSGIPDRFSGSSSGNTASLTITGAQAEDEADYYCGGYWGSTDVFGGGTKLTVL	–	–	–	–	0.663 nM	0.015 nM
A112-IgG antibody (antibody, V domains shown, VH fused to CH1, hinge, CH2 and CH3 of human IgG4 (S228P); also called A112-IgG Ab) VH: not shown VL: ELTQDPAVSVALGQTVRITCSGRSGSYGWYQQKPGQAPVLVIYDNTNRPSGIPDRFSGSSSGNTASLTITGAQAEDEADYYCGGYDGSTDVFGGGTKLTVL	0.204 nM	422 MFI	–	0.075 nM	–	–
A217-IgG antibody (antibody, V domains shown, VH fused to CH1, hinge, CH2 and CH3 of human IgG4 (S228P); also called A217-IgG Ab) VH: not shown VL: ELTQDPAVSVALGQTVRITCSGSSGSYGWYQQKPGQAPVLVIYDNTNRPSGIPDRFSGSSSGNTASLTITGAQAEDEADYYCGGYWGSTDVFGGGTKLTVL	–	–	–	–	1.18 nM	0.033 nM
A105-IgG antibody (antibody, V domains shown, VH fused to CH1, hinge, CH2 and CH3 of human IgG4 (S228P); also called A105-IgG Ab) VH: not shown VL: ELTQDPAVSVALGQTVRITCSGSSGSYGWYQQKPGQAPVLVIYDNTNRPSGIPDRFSGSSSGNTASLTITGAQAEDEADYYCGGYDGSTDVFGGGTKLTVL	0.234 nM	454 MFI	–	0.153 nM	–	–
A209-IgG antibody (antibody, V domains shown, VH fused to CH1, hinge, CH2 and CH3 of human IgG4 (S228P); also called A209-IgG Ab; A209-TgG Ab) VH: not shown VL: ELTQDPAVSVALGQTVRITCSGRSGSYGWYQQKPGQAPVLVIYDNTNRPSGIPDRFSGSSSGNTASLTITGAQAEDEADYYCGGYWGSTDVFGGGTKLTVL	–	–	–	–	0.662 nM	0.026 nM

Now from value to binder:

EC50 [1]	TOP MFI [1]	EC50 [2]	EC50 (Human CNTN4 (His-tagged) [3])	Kd (Human CNTN4 (His-tagged) [4])	EC50 (Human CNTN4 (His-tagged) [5])	Binder
–	–	–	–	–	0.035 nM	A202-IgG antibody (antibody, V domains shown, VH fused to CH1, hinge, CH2 and CH3 of human IgG4 (S228P); also called A202-IgG Ab) VH: not shown VL: ELTQDPAVSVALGQTVRITCSGRSGSYGWYQQKPGQAPVLVIYDNTNRPSGIPDRFSGSSSGNTASLTITGAQAEDEADYYCGGYWGSTDVFGGGTKLTVL
0.09 nM	378 MFI	–	0.031 nM	–	–	A103-IgG antibody (antibody, V domains shown, VH fused to CH1, hinge, CH2 and CH3 of human IgG4 (S228P); also called A103-IgG Ab) VH: not shown VL: ELTQDPAVSVALGQTVRITCSGSSGSYGWYQQKPGQAPVLVIYDNTNRPSGIPDRFSGSSSGNTASLTITGAQAEDEADYYCGGYDGSTDVFGGGTKLTVL
0.109 nM	358 MFI	–	0.069 nM	–	–	A104-IgG antibody (antibody, V domains shown, VH fused to CH1, hinge, CH2 and CH3 of human IgG4 (S228P); also called A104-IgG Ab) VH: not shown VL: ELTQDPAVSVALGQTVRITCSGSSGSYGWYQQKPGQAPVLVIYDNTNRPSGIPDRFSGSSSGNTASLTITGAQAEDEADYYCGGYDGSTDVFGGGTKLTVL
0.066 nM	328 MFI	–	0.057 nM	–	–	A102-IgG antibody (antibody, V domains shown, VH fused to CH1, hinge, CH2 and CH3 of human IgG4 (S228P); also called A102-IgG Ab) VH: not shown VL: ELTQDPAVSVALGQTVRITCSGSSGSYGWYQQKPGQAPVLVIYDNTNRPSGIPDRFSGSSSGNTASLTITGAQAEDEADYYCGGYDGSTDVFGGGTKLTVL
0.082 nM	357 MFI	–	0.041 nM	–	–	A109-IgG antibody (antibody, V domains shown, VH fused to CH1, hinge, CH2 and CH3 of human IgG4 (S228P); also called A109-IgG Ab) VH: not shown VL: ELTQDPAVSVALGQTVRITCSGSSGSYGWYQQKPGQAPVLVIYDNTNRPSGIPDRFSGSSSGNTASLTITGAQAEDEADYYCGGYDGSTDVFGGGTKLTVL
